Measured values as given in patent US11767515B2, “Colonic organoids and methods of making and using same” (Children's Hospital Medical Center, priority 2016, dated 2023).

Experiments:
BMP signaling [1] = assay: BMP inhibition in Xenopus tropicalis embryos; assay type: in vivo; settings: DMH-1 20 pM vs DMSO
Experimental: BMP inhibition in frog and mouse embryos. Xenopus tropicalis embryo culture and small molecule treatments were performed as previously described (Rankin et al., 2012; Rankin et al., 2015). DMH-1 (Sigma D8946) was dissolved in DMSO, and used at final concentration of 20 pM; equal concentrations of DMSO vehicle were used on sibling embryos. Inhibitor treatment experiments were repeated twice with similar effects on the markers analyzed. For Xenopus in-situ hybridization analyses, DIG-labeled antisense RNA probes were generated using linearized full-length cDNA plasmid templates (X. tropicalis satb2 was purchased from ATCC, clone 7720194; HinDIII, T7 for probe; X. laevis satb2 was a gift for Tyler Square and Daniel Medeiros, University of Colorado-Boulder; Xbal, Sp6 for probe). Complete details describing probe synthesis and the in-situ hybridization protocol are available on Xenbase (hftp://wiki.xenbase.orq/xenwiki/index.php/Protocols).

BMP signaling [2] = assay: BMP inhibition in mouse whole embryo culture; assay type: in vivo
Experimental: For mouse whole embryo cultures, e7.5 embryos were cultured in a 1:1 mixture of Ham's F12 medium and whole embryo culture rat serum (Harlan Labs) containing N-2 Supplement (Invitrogen). Vessels were placed on a roller culture apparatus (BTC Engineering, Cambridge, UK) and maintained for 2 days at 37° C. and gassed with 20% 02 and 5% CO2. BMP signaling was inhibited by treatment with 5 pM DMH-1, with DMSO serving as a vehicle control.
(§1) Tissue processing, immunofluorescence and microscopy. Tissues were fixed for 1-3 hours in 4% paraformaldehyde (PFA) on ice depending on the size of the tissue. Organoids and transplant engraftments were frozen in OCT. OCT sections were blocked using donkey serum (5% serum in 1×PBS plus 0.5% Triton-X) for 30 min and incubated with primary antibody overnight at 4° C. Slides were then washed 3× with 1×PBS plus 0.5% Triton-X and incubated in secondary antibody with DAPI in blocking buffer for 2 h at room temperature. See Table 2 for a list of antibodies and respective dilutions. Slides were then washed 2× with 1×PBS plus 0.5% Triton-X followed by a final wash in 1×PBS. Coverslips were then mounted using Fluoromount-G® (SouthernBiotech). Images were captured on a Nikon A1 confocal microscope and analyzed using Imaris Imaging Software (Bitplane). For whole-mount staining, tissues were processed similarly as above and then cleared in Murray's solution. Imaging was performed with a Nikon A1 confocal microscope.
(§2) Quantification of immunofluorescence images. Image quantitation of whole embryos was done by splitting images into separated channels and then measuring pixel area using ImageJ (NIH). Pixel area was determined for each channel, the ratio between channels was determined and the ratio for control treated embryos was represented as 100. Quantitation of in vitro and in vivo grown organoids was done on sections from which images were captured as explained above. The number of CDX2, GATA4 and SATB2 positive nuclei were quantified using the spot function in [marls following calibration with human biopsy samples.

human gut tube spheroids [3] = assay: HOX/MSX2 gene expression in patterned gut tube spheroids after 3 days (RNA-seq, QPCR); assay type: cell-based
Experimental: (§3) Patterning midgut/hingut spheroids into HIOs and HCOs. Spheroids were collected from 24 well plate and plated in Matrigel (BD). To generate proximal HIOs, spheroids were overlayed with intestinal growth medium (Advanced DMEM/F-12, N2, B27, 15 mM HEPES, 2 mM L-glutamine, penicillin-streptomycin) supplemented with 100 ng/mL EGF (R&D) alone, or 100 ng/mL EGF with 100 ng/ml NOGGIN (R&D). To generate HCOs, spheroids were overlayed with 100 ng/mL EGF plus 100 ng/mL BMP (R&D). For SHH experiments, 1 pM SAG (Tocris), 5 pM SAG or 2.5 pM Cyclopamine (Tocris) were added to control media for initial 3 days after which RNA samples were collected. Media was changed at 3 days with only EGF being maintained in the media for all patterning conditions. Media was then changed twice weekly thereafter. HIOs and HCOs were replated in fresh Matrigel every 14 days.
(§4) RNA isolation and QPCR. RNA was extracted using Nucleospin® RNA extraction kit (Macharey-Nagel) and reverse transcribed into cDNA using Superscript VILO (Invitrogen) according to manufacturer's protocols. QPCR primers were designed using the qPrimerDepot webased tool (primerdepot.nci.nih.gov). QPCR was performed using Quantitect SYBR® Green PCR kit (Qiagen) and a QuantStudio™ 6 Flex Real-Time PCR System (Applied Biosystems).

[4] = tested on: human intestinal organoids; assay: Regional markers in organoids after prolonged in vitro culture (IF, QPCR); assay type: cell-based
Experimental: as §3, §1, §2, §4

human gut tube spheroids [5] = assay: Patterning of human gut tube spheroids (pSMAD1/5/8 and SATB2 staining); assay type: cell-based; settings: spheroids treated for 12 hours; 100 ng/mL
Experimental: as §3, with “Media was then changed twice weekly thereafter. HIOs and HCOs were replated in fresh Matrigel every 14 days.” left out
Tissue processing, immunofluorescence and microscopy. […] Images were captured on a Nikon A1 confocal microscope and analyzed using Imaris Imaging Software (Bitplane). […]
as §2, with “The number of CDX2, GATA4 and SATB2 positive nuclei were quantified using the spot function in [marls following calibration with human biopsy samples.” left out

organoid mesenchyme = assay: Patterning markers in isolated organoid mesenchyme cultures (QPCR); assay type: cell-based, human; settings: mesenchymal cell cultures expanded for 2-3 weeks
Experimental: as §4

transplanted organoids = assay: Transplantation of patterned organoids under the mouse kidney capsule; assay type: in vivo
Experimental: as §1

[6] = 28-day old organoids after initial 3 day treatment

CC(C)Oc1ccc(-c2cnc3c(-c4ccnc5ccccc45)cnn3c2)cc1 [DMH-1]
Satb2 expression in the hindgut and brachial arches (BMP signaling [1]): loss of Satb2 expression | Satb2 expression in the first brachial arch (BMP signaling [2]; DMH-1 treated mouse embryos): lost | Satb2 expression in the posterior gut tube (BMP signaling [2]; e7.5 mouse embryos, 48 hours of DMH-1 treatment): loss of Satb2 expression | pSmad1/5/8 levels (BMP signaling [2]; e7.5 mouse embryos, 48 hours of DMH-1 treatment, 5 µM DMH-1 vs DMSO): significant reduction | TGFI3 signaling as measured by pSmad2/3 levels (BMP signaling [2]; mouse embryos cultured in DMSO or DMH-1): no impact

CNC1CCC(N(Cc2cccc(-c3ccncc3)c2)C(=O)c2sc3ccccc3c2Cl)CC1 (stereo not shown) [SAG]
SAG-mediated activation of MSX2, HOXA13, HOXD13 relative to activation mediated by BMP2 (human gut tube spheroids [3]; 3 days): only a fraction | activation of MSX2, HOXA13 and HOXD13 (QPCR) (human gut tube spheroids [3]; SAG added to control media for initial 3 days): concentration dependent activation

B1: NOGGIN: BMP inhibitor NOGGIN (R&D), 100 ng/ml, used to generate proximal HIOs (protein, UniProt Q13253 28-232, looked up)
Noggin: QHYLHIRPAPSDNLPLVDLIEHPDPIFDPKEKDLNETLLRSLLGGHYDPGFMATSPPEDRPGGGGGAAGGAEDLAELDQLLRQRPSGAMPSEIKGLEFSEGLAQGKKQRLSKKLRRKLQMWLWSQTFCPVLYAWNDLGSRFWPRYVKVGSCFSKRSCSVPEGMVCKPSKSVHLTVLRWRCQRRGGQRCGWIPIQYPIISECKCSC
SATB2 expression after re-patterning with NOGGIN ([4]; 3-day BMP treated spheroids shifted to NOGGIN-containing media for 3 days): a subset of organoids lost SATB2 expression | Levels of ONECUT1 (marker of proximal small intestine) [4, 6]: highest | SATB2 in the epithelium [4, 6]: absent | MUC5B staining (colon-specific goblet cell marker) ([4]; 28-day organoids): absent | goblet cells by intracellular MUC2 staining ([4]; at 28 days): rare intracellular MUC2 staining | BMP signaling levels by nuclear pSMAD1/5/8 staining (human gut tube spheroids [5]): abolished this staining | HOXD3 expression / proximal identity of mesenchyme (organoid mesenchyme): stable proximal identity | efficiency of organoid engraftment (transplanted organoids; compared with HCOs): more efficient | epithelial morphology of transplanted organoids (transplanted organoids; under the mouse kidney capsule for 6-10 weeks): formed well-defined crypts and tall villi
